This data set concerns the molecule itself. Put plainly: native gel or EMSA; native PAGE, 4-20% Tris-glycine gel, native running buffer pH 7.5, Coomassie staining; samples in native sample buffer heated 10 min at 57 °C (recombinant CRT with or without 3 days at 42 °C). On the technique in general: Mobility shift assays separate free from complexed probe on a gel.

B1: full-length recombinant wild-type calreticulin (natural protein, human, UniProt P27797 18-417, looked up)
chain: EPAVYFKEQFLDGDGWTSRWIESKHKSDFGKFVLSSGKFYGDEEKDKGLQTSQDARFYALSASFEPFSNKGQTLVVQFTVKHEQNIDCGGGYVKLFPNSLDQTDMHGDSEYNIMFGPDICGPGTKKVHVIFNYKGKNVLINKDIRCKDDEFTHLYTLIVRPDNTYEVKIDNSQVESGSLEDDWDFLPPKKIKDPDASKPEDWDERAKIDDPTDSKPEDWDKPEHIPDPDAKKPEDWDEEMDGEWEPPVIQNPEYKGEWKPRQIDNPDYKGTWIHPEIDNPEYSPDPSIYAYDNFGVLGLDLWQVKSGTIFDNFLITNDEAYAEEFGNETWGVTKAAEKQMKDKQDEEQRLKEEEEDKKRKEEEEAEDKEDDEDKDEDEEDEEDKEEDEEEDVPGQAKDEL
notes: calreticulin, human, Prot id P27797; called full-length recombinant wt CRT; Oligomers formed after heat treatment (57 °C 10 min, with or without 42 °C for 3 days); also called CRT; wt CRT; source: recombinant, produced using standard protocols and purified as previously described by Čiplys and colleagues [39]
As to B1, the binding result is on record as “binds”.

B2: calreticulin purified from human placenta (natural protein, UniProt P27797 18-417, looked up)
chain: B1 chain
notes: calreticulin, human, Prot id P27797, purified from placenta; Heat-treated (57 °C 10 min) before native PAGE; also called CRT; human CRT purified from human placenta; source: purified from human placenta
Consider B2, for which the binding result is recorded as “binds”.

These data come from article PMC8395503, “Epitope Mapping of Monoclonal Antibodies to Calreticulin Reveals That Charged Amino Acids Are Essential for Antibody Binding” (Antibodies, 2021).
